Results as given in the supplement of paper PMC10065799, “High-throughput profiling of sequence recognition by tyrosine kinases and SH2 domains using bacterial peptide display” (eLife, 2023).

Tests used:
Jak2 = Jak2 (UniProt O60674); experiment: phosphorylation enrichment, bacterial display (enrichment ratio); higher = better substrate or ligand; peptides without Tyr show the background
c-Abl (mouse) = experiment: as above
FGFR3 = FGFR3 (UniProt P22607); experiment: as above
FGFR1 = FGFR1 (UniProt P11362); experiment: as above
c-Src = experiment: as above
EPHB1 = EPHB1 (UniProt P54762); experiment: as above
EPHB1, sequence (P54762 whole entry, looked up): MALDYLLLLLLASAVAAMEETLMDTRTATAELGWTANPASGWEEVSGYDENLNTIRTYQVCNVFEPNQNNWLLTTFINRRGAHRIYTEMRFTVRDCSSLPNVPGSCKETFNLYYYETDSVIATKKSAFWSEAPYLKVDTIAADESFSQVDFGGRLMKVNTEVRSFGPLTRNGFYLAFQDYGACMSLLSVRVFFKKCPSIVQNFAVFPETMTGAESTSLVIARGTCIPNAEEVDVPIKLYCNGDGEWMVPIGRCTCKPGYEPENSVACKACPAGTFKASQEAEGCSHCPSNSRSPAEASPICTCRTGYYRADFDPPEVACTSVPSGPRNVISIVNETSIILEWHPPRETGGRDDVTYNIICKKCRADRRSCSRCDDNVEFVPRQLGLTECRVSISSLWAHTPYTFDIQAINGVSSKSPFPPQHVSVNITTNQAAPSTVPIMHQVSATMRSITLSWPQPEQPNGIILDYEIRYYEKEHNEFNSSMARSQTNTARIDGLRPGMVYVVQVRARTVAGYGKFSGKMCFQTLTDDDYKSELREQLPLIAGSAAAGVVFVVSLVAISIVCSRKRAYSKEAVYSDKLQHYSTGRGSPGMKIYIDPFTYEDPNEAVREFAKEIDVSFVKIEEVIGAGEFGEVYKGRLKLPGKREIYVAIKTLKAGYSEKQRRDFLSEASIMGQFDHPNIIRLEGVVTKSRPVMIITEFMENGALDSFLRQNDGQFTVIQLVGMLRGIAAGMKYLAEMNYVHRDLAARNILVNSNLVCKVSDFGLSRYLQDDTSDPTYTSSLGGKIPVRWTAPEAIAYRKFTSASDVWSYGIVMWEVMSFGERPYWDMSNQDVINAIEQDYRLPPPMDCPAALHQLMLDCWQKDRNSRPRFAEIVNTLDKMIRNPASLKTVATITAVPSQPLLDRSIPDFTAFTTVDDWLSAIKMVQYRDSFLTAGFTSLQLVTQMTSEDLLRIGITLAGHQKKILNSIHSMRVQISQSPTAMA

Hck = Hck (UniProt P08631); experiment: as above
Hck, sequence (P08631 whole entry, looked up): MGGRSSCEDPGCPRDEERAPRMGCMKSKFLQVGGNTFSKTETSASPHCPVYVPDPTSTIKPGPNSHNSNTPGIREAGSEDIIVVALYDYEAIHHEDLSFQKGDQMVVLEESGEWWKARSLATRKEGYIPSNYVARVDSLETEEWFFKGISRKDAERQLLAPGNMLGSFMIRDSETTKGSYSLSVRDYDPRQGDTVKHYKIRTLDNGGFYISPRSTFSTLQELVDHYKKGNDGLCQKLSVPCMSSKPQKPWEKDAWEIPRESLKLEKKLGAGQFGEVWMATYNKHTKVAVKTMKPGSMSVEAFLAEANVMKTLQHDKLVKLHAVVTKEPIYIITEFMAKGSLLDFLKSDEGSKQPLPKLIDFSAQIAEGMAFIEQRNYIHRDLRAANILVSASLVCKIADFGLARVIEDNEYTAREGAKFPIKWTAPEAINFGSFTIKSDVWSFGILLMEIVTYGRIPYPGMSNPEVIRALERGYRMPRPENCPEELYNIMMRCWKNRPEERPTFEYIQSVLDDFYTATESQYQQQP

Fyn = Fyn (UniProt P06241); experiment: as above
Fyn, sequence (P06241 whole entry, looked up): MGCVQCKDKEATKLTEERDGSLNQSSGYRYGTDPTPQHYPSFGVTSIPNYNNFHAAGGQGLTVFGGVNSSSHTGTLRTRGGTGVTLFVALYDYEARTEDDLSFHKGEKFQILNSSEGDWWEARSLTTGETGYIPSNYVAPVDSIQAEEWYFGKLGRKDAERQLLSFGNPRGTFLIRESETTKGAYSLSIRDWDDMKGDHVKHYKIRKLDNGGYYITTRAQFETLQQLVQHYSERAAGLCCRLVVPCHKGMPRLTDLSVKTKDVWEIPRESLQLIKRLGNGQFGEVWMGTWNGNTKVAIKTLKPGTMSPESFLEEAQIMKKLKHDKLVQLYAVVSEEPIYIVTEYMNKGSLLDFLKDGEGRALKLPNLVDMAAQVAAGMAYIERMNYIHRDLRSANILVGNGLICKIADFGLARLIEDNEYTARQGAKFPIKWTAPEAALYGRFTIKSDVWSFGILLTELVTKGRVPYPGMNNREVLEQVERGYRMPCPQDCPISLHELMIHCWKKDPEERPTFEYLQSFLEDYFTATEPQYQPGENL

Fes = Fes (UniProt P07332); experiment: as above
Fes, sequence (P07332 whole entry, looked up): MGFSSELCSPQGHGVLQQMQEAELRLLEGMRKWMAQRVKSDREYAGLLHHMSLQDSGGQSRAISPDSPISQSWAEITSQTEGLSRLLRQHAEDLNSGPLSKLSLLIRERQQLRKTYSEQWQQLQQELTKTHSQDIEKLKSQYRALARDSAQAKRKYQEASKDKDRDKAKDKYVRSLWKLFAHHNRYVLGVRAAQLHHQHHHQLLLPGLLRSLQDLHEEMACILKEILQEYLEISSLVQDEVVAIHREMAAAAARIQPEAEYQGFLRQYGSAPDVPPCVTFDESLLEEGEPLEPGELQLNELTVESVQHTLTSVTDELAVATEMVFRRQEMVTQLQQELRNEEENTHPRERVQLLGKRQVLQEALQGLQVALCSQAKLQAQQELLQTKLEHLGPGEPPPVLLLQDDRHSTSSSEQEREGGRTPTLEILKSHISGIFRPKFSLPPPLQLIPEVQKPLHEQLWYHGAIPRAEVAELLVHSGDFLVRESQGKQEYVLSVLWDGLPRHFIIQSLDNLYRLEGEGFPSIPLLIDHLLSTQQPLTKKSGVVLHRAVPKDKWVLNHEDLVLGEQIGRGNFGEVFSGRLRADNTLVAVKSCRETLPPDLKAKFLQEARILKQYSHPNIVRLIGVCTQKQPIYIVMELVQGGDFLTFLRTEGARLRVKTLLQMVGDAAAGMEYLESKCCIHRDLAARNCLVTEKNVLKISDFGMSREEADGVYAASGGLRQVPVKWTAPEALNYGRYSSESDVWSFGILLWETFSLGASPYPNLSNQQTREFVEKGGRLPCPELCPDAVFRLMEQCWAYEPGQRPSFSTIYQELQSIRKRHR

AncSZ = experiment: as above
MERTK = MERTK (UniProt Q12866); experiment: as above
MERTK, sequence (Q12866 whole entry, looked up): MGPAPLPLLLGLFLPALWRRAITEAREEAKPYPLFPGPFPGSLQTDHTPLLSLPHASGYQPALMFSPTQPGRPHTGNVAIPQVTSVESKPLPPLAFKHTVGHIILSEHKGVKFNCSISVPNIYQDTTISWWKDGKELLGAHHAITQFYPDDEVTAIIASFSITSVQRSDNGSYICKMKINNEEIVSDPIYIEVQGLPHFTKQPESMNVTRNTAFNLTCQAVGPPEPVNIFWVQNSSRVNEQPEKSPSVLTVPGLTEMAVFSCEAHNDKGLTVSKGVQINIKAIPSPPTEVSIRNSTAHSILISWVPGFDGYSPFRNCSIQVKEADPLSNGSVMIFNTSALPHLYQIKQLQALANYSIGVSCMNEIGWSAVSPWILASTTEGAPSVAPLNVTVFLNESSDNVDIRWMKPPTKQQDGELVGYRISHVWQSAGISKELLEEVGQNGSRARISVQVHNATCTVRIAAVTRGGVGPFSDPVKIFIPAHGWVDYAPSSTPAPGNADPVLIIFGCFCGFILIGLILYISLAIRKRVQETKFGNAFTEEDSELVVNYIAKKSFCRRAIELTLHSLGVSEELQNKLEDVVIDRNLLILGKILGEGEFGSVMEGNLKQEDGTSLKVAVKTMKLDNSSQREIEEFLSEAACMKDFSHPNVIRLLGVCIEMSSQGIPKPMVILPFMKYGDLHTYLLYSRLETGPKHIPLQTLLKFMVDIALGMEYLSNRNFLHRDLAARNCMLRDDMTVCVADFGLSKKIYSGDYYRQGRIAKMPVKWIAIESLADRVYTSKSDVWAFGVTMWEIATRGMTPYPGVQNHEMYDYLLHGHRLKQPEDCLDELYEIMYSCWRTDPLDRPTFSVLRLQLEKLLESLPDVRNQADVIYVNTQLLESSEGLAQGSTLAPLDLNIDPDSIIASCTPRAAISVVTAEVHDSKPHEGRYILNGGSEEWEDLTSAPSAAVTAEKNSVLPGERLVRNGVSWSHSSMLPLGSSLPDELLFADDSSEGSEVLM

EPHB2 = EPHB2 (UniProt P29323); experiment: as above
Fer (mouse) = experiment: as above
SHP2-C SH2 = experiment: SH2 binding enrichment of the phosphorylated peptide, bacterial display (enrichment ratio); higher = better substrate or ligand; peptides without Tyr show the background
c-Src SH2 = experiment: as above
Grb2 SH2 = Grb2 SH2 (UniProt P62993); experiment: as above
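Wherever SH2 binding enrichment of the phosphorylated peptide, bacterial display is given: peptide library displayed on the E. coli surface as eCPX fusions, selected cells deep-sequenced, score is each peptide's frequency after selection divided by its frequency in the input.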
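Wherever phosphorylation enrichment, bacterial display is given: 11-residue human phosphosite peptides and single-mutation variants displayed on the E. coli surface, counted by deep sequencing, each peptide's frequency after selection divided by its frequency in the unselected input library; frequency after pTyr selection over input frequency; kinase dosed for 20-30% of maximal phosphorylation in three min.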

FGFR3, sequence (P22607 whole entry, looked up): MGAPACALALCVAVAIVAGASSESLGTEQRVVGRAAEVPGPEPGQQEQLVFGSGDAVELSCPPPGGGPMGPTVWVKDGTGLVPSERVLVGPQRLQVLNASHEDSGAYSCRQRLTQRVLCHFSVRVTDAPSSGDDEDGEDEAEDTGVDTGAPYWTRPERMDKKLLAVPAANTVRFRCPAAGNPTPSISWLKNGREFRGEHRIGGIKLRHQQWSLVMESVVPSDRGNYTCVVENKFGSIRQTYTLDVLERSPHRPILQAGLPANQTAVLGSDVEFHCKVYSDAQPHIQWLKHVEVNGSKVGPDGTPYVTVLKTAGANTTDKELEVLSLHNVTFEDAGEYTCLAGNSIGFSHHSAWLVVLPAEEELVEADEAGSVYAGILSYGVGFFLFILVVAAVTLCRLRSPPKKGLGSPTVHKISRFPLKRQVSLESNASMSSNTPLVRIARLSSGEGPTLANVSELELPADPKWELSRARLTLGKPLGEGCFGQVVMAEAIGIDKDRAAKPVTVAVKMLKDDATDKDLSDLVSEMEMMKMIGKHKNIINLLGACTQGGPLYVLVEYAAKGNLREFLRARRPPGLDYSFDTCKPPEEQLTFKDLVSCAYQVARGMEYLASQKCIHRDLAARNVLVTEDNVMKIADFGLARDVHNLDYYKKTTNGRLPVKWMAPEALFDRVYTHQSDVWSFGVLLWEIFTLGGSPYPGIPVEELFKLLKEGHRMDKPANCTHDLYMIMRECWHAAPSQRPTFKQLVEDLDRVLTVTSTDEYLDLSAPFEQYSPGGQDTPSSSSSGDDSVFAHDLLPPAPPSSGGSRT

| Sequence | SH2 binding enrichment (SHP2-C SH2) | SH2 binding enrichment (c-Src SH2) | SH2 binding enrichment (Grb2 SH2) | phosphorylation enrichment (Jak2) | phosphorylation enrichment (c-Abl (mouse)) | phosphorylation enrichment (FGFR3) | phosphorylation enrichment (FGFR1) | phosphorylation enrichment (c-Src) | phosphorylation enrichment (EPHB1) | phosphorylation enrichment (Hck) | phosphorylation enrichment (Fyn) | phosphorylation enrichment (Fes) | phosphorylation enrichment (AncSZ) | phosphorylation enrichment (MERTK) | phosphorylation enrichment (EPHB2) | phosphorylation enrichment (Fer (mouse)) |
| --- | --- | --- | --- | --- | --- | --- | --- | --- | --- | --- | --- | --- | --- | --- | --- | --- |
| GKTQQYDCKWF [BCR_Y751_YF] | 0.624 | 0.466 | 0.826 | 0.927 | 0.748 | 0.63 | 0.472 | 0.43 | 0.596 | 0.425 | 0.432 | 1.07 | 0.848 | 0.451 | 0.563 | 0.463 |
| AEQDCYHGAIP [FER_Y461_W460C] | 0.827 | 0.65 | 0.96 | 0.742 | 0.706 | 0.599 | 0.523 | 0.599 | 0.648 | 0.499 | 0.472 | 1.01 | 0.864 | 0.453 | 0.655 | 0.456 |
| EGTATYAAAVL [JUP_Y644] | 0.722 | 0.493 | 0.847 | 0.501 | 0.639 | 0.458 | 0.394 | 0.897 | 0.561 | 0.987 | 0.858 | 0.661 | 0.587 | 0.438 | 1.24 | 1.06 |
| FRARAYSFRGP [CHGA_Y381_G382S] | 0.363 | 0.573 | 0.597 | 0.628 | 0.573 | 0.534 | 0.538 | 0.507 | 0.48 | 0.455 | 0.418 | 0.591 | 0.697 | 0.601 | 0.419 | 0.456 |
| FPAVGYHKPHI [IDS_Y225_L221P] | 0.826 | 0.91 | 0.823 | 0.625 | 0.602 | 0.565 | 0.412 | 0.41 | 0.393 | 0.394 | 0.472 | 0.601 | 0.638 | 0.374 | 0.467 | 0.436 |
| SENYTYIWWLN [PSG4_Y271_K267E] | 0.636 | 0.399 | 0.694 | 1.27 | 0.829 | 1.82 | 1.67 | 0.362 | 1.53 | 0.485 | 0.403 | 1.33 | 1.27 | 0.605 | 1.24 | 0.694 |
| FEEDSYSHIMA [FDPS_Y388_YF] | 0.479 | 0.864 | 0.718 | 1.06 | 0.671 | 1.01 | 1.01 | 0.721 | 0.551 | 0.972 | 0.634 | 1.23 | 1.33 | 0.458 | 0.593 | 1.07 |
| KPPFSYNALIM [FOXG1_Y186] | 0.497 | 0.403 | 0.726 | 0.632 | 0.57 | 0.628 | 0.455 | 0.512 | 0.424 | 0.472 | 0.438 | 0.724 | 0.641 | 0.525 | 0.488 | 0.461 |
| AKLVQYYMEHH [PTPN11_Y80_E76K] | 1.75 | 0.718 | 0.936 | 0.799 | 0.709 | 0.549 | 0.633 | 0.615 | 2.46 | 0.637 | 0.469 | 0.839 | 0.774 | 0.983 | 1.21 | 0.447 |
| VHYLVYHHHHH [CACNA1H_Y519_H516Y] | 1.45 | 1 | 0.985 | 1.49 | 1.4 | 1.07 | 0.7 | 0.587 | 0.687 | 0.632 | 0.537 | 2.17 | 1.17 | 0.773 | 0.666 | 0.678 |
| YEEDSYSHVMA [FDPS_Y388_I391V] | 0.69 | 2.64 | 0.772 | 0.944 | 0.696 | 1.27 | 1.22 | 0.587 | 0.59 | 0.606 | 0.775 | 1.17 | 1.87 | 0.464 | 0.65 | 1.64 |
| CPSLPYSPVSS [CAMKK2_Y128] | 0.855 | 0.712 | 0.978 | 0.905 | 0.654 | 0.7 | 0.588 | 0.787 | 0.491 | 0.497 | 0.545 | 0.847 | 0.813 | 0.527 | 0.607 | 3.14 |
| ETRWNYHFEVV [GCNT3_Y267_K266N] | 0.646 | 0.592 | 0.761 | 1.23 | 0.904 | 0.893 | 0.563 | 0.433 | 0.971 | 0.439 | 0.449 | 1.65 | 1.38 | 0.398 | 0.496 | 0.568 |
| GKFFQYDTWKQ [IGF2_Y116] | 0.755 | 0.742 | 0.906 | 0.601 | 0.582 | 0.514 | 0.407 | 0.567 | 0.498 | 0.826 | 0.43 | 0.852 | 0.766 | 0.485 | 0.564 | 0.468 |
| SGGGSYGSGGG [KRT1_Y539] | 0.608 | 0.444 | 0.526 | 0.599 | 0.512 | 0.372 | 0.351 | 0.271 | 0.312 | 0.346 | 0.412 | 0.491 | 0.626 | 0.349 | 0.282 | 0.356 |
| MEIHAYRKLSE [LMNA_Y376_L380S] | 0.641 | 0.432 | 0.718 | 0.678 | 0.641 | 0.495 | 0.371 | 0.384 | 0.379 | 0.466 | 0.356 | 0.788 | 0.729 | 0.342 | 0.459 | 0.39 |

Second part, led by results:

| SH2 binding enrichment (SHP2-C SH2) | SH2 binding enrichment (c-Src SH2) | SH2 binding enrichment (Grb2 SH2) | Sequence | phosphorylation enrichment (Jak2) | phosphorylation enrichment (c-Abl (mouse)) | phosphorylation enrichment (FGFR3) | phosphorylation enrichment (FGFR1) | phosphorylation enrichment (c-Src) | phosphorylation enrichment (EPHB1) | phosphorylation enrichment (Hck) | phosphorylation enrichment (Fyn) | phosphorylation enrichment (Fes) | phosphorylation enrichment (AncSZ) | phosphorylation enrichment (MERTK) | phosphorylation enrichment (EPHB2) | phosphorylation enrichment (Fer (mouse)) |
| --- | --- | --- | --- | --- | --- | --- | --- | --- | --- | --- | --- | --- | --- | --- | --- | --- |
| 0.441 | 0.366 | 0.68 | ALTDNYMFLVI [HAGH_Y61_YF] | 1.49 | 1.22 | 5.16 | 7.04 | 0.733 | 8.31 | 0.869 | 0.615 | 1.62 | 1.37 | 1.97 | 6.12 | 2.88 |
| 0.766 | 0.557 | 0.786 | HSREDYFECFQ [ZIM2_Y411_Q408R] | 1.58 | 1.28 | 6.79 | 9.83 | 0.91 | 1.83 | 0.907 | 0.598 | 1.64 | 2.12 | 0.721 | 1.19 | 0.811 |
| 1.98 | 36 | 0.922 | TDGNGYISFNE [LCP1_Y28] | 0.824 | 0.624 | 0.752 | 0.546 | 0.603 | 0.476 | 0.458 | 0.454 | 1.13 | 0.923 | 0.412 | 0.485 | 0.489 |
| 1.14 | 8.91 | 32.9 | YENGEYIVRQG [PRKG1_Y247_I249V] | 0.784 | 0.582 | 0.729 | 0.495 | 0.466 | 0.543 | 0.495 | 0.494 | 0.937 | 1.02 | 0.424 | 0.464 | 0.483 |
| 1.28 | 1.12 | 1.3 | KVALPYKPFFF [POLE_Y100_YF] | 0.674 | 0.656 | 0.537 | 0.375 | 0.547 | 0.42 | 0.557 | 0.44 | 0.855 | 0.743 | 0.41 | 0.715 | 0.455 |
| 4.37 | 1.69 | 0.82 | VQNIVYHTASI [CYP39A1_Y102_R103H] | 0.621 | 0.824 | 0.408 | 0.435 | 0.636 | 0.375 | 0.543 | 0.401 | 0.708 | 0.605 | 0.376 | 0.43 | 0.386 |
| 0.752 | 1.07 | 4.36 | LAARYYNWVCF [FLT4_Y1231_S1235C] | 1.11 | 0.977 | 1.94 | 1.96 | 0.512 | 0.899 | 0.588 | 0.777 | 1.51 | 1.37 | 1.04 | 0.615 | 1.39 |
| 0.724 | 3.29 | 1.29 | PDDPSYSLVDD [PSTPIP2_Y323_N322S] | 1.75 | 1.03 | 1.08 | 0.899 | 0.91 | 0.999 | 0.679 | 0.885 | 1.53 | 1.6 | 0.563 | 0.8 | 0.728 |
| 1.14 | 0.927 | 0.83 | KDFNKYVAYIE [KDM4B_Y31] | 0.603 | 0.483 | 0.53 | 0.375 | 0.364 | 0.461 | 0.485 | 0.365 | 0.767 | 0.718 | 0.379 | 0.449 | 0.359 |
| 0.772 | 0.583 | 0.877 | AAVDNYCRHNF [HLA-DRB1_Y107_T106N_YF] | 0.928 | 0.484 | 1.33 | 0.442 | 0.349 | 0.753 | 0.203 | 0.587 | 0.53 | 0.41 | 0.326 | 0.234 | 0.471 |
| 0.557 | 0.985 | 0.769 | YLENYYDLEKD [MMP3_Y42_K45E] | 1.15 | 0.957 | 5.26 | 7.06 | 2.29 | 5.81 | 1.63 | 4.51 | 1.47 | 1.76 | 0.752 | 3.24 | 0.781 |
| 1.09 | 0.605 | 1.02 | FLGRNYLETLM [DUS3L_Y610_D609N_YF] | 0.63 | 0.522 | 0.567 | 0.448 | 0.292 | 0.515 | 0.33 | 0.454 | 0.701 | 0.679 | 0.322 | 0.412 | 0.433 |
| 0.734 | 0.554 | 0.767 | EDDIIYTQDFT [STK11_Y362] | 1.29 | 0.957 | 0.821 | 0.652 | 1.11 | 0.869 | 0.742 | 0.796 | 1.37 | 1.41 | 0.631 | 0.647 | 0.655 |
| 0.51 | 0.418 | 0.645 | SDVCMYRKNIY [SYNE2_Y570] | 0.875 | 0.685 | 0.681 | 0.502 | 0.424 | 0.618 | 0.51 | 0.416 | 1.08 | 1.12 | 0.419 | 0.541 | 0.491 |
| 0.691 | 1.08 | 0.869 | FSAGTYPRMEE [SYCN_Y108_L111M] | 0.575 | 0.501 | 0.547 | 1.12 | 0.407 | 0.453 | 0.322 | 0.361 | 0.65 | 0.863 | 0.365 | 0.467 | 0.417 |
| 0.478 | 0.545 | 0.626 | TRVMEYISCLD [CLTCL1_Y1043_R1046C] | 0.995 | 1.08 | 0.843 | 0.599 | 0.457 | 0.661 | 0.647 | 0.521 | 1.18 | 1.18 | 0.507 | 0.749 | 0.592 |
| 0.543 | 0.61 | 0.635 | ETESPYQELQG [TYROBP_Y91] | 1.3 | 0.83 | 0.834 | 0.91 | 1.52 | 0.624 | 0.9 | 0.775 | 1.39 | 1.24 | 0.669 | 0.646 | 0.673 |
